Data: IntAct's records for PubMed 17052462

B1: B-cell CLL/lymphoma 9 protein (Homo sapiens), O00512 (parent)
chain: MHSSNPKVRSSPSGNTQSSPKSKQEVMVRPPTVMSPSGNPQLDSKFSNQGKQGGSASQSQPSPCDSKSGGHTPKALPGPGGSMGLKNGAGNGAKGKGKRERSISADSFDQRDPGTPNDDSDIKECNSADHIKSQDSQHTPHSMTPSNATAPRSSTPSHGQTTATEPTPAQKTPAKVVYVFSTEMANKAAEAVLKGQVETIVSFHIQNISNNKTERSTAPLNTQISALRNDPKPLPQQPPAPANQDQNSSQNTRLQPTPPIPAPAPKPAAPPRPLDRESPGVENKLIPSVGSPASSTPLPPDGTGPNSTPNNRAVTPVSQGSNSSSADPKAPPPPPVSSGEPPTLGENPDGLSQEQLEHRERSLQTLRDIQRMLFPDEKEFTGAQSGGPQQNPGVLDGPQKKPEGPIQAMMAQSQSLGKGPGPRTDVGAPFGPQGHRDVPFSPDEMVPPSMNSQSGTIGPDHLDHMTPEQIAWLKLQQEFYEEKRRKQEQVVVQQCSLQDMMVHQHGPRGVVRGPPPPYQMTPSEGWAPGGTEPFSDGINMPHSLPPRGMAPHPNMPGSQMRLPGFAGMINSEMEGPNVPNPASRPGLSGVSWPDDVPKIPDGRNFPPGQGIFSGPGRGERFPNPQGLSEEMFQQQLAEKQLGLPPGMAMEGIRPSMEMNRMIPGSQRHMEPGNNPIFPRIPVEGPLSPSRGDFPKGIPPQMGPGRELEFGMVPSGMKGDVNLNVNMGSNSQMIPQKMREAGAGPEEMLKLRPGGSDMLPAQQKMVPLPFGEHPQQEYGMGPRPFLPMSQGPGSNSGLRNLREPIGPDQRTNSRLSHMPPLPLNPSSNPTSLNTAPPVQRGLGRKPLDISVAGSQVHSPGINPLKSPTMHQVQSPMLGSPSGNLKSPQTPSQLAGMLAGPAAAASIKSPPVLGSAAASPVHLKSPSLPAPSPGWTSSPKPPLQSPGIPPNHKAPLTMASPAMLGNVESGGPPPPTASQPASVNIPGSLPSSTPYTMPPEPTLSQNPLSIMMSRMSKFAMPSSTPLYHDAIKTVASSDDDSPPARSPNLPSMNNMPGMGINTQNPRISGPNPVVPMPTLSPMGMTQPLSHSNQMPSPNAVGPNIPPHGVPMGPGLMSHNPIMGHGSQEPPMVPQGRMGFPQGFPPVQSPPQQVPFPHNGPSGGQGSFPGGMGFPGEGPLGRPSNLPQSSADAALCKPGGPGGPDSFTVLGNSMPSVFTDPDLQEVIRPGATGIPEFDLSRIIPSEKPSQTLQYFPRGEVPGRKQPQGPGPGFSHMQGMMGEQAPRMGLALPGMGGPGPVGTPDIPLGTAPSMPGHNPMRPPAFLQQGMMGPHHRMMSPAQSTMPGQPTLMSNPAAAVGMIPGKDRGPAGLYTHPGPVGSPGMMMSMQGMMGPQQNIMIPPQMRPRGMAADVGMGGFSQGPGNPGNMMF

Variants of: B1
Settings: with ctnb1_human CTNNB1, P35222
Sequence of ctnb1_human CTNNB1, P35222 (P35222 whole entry): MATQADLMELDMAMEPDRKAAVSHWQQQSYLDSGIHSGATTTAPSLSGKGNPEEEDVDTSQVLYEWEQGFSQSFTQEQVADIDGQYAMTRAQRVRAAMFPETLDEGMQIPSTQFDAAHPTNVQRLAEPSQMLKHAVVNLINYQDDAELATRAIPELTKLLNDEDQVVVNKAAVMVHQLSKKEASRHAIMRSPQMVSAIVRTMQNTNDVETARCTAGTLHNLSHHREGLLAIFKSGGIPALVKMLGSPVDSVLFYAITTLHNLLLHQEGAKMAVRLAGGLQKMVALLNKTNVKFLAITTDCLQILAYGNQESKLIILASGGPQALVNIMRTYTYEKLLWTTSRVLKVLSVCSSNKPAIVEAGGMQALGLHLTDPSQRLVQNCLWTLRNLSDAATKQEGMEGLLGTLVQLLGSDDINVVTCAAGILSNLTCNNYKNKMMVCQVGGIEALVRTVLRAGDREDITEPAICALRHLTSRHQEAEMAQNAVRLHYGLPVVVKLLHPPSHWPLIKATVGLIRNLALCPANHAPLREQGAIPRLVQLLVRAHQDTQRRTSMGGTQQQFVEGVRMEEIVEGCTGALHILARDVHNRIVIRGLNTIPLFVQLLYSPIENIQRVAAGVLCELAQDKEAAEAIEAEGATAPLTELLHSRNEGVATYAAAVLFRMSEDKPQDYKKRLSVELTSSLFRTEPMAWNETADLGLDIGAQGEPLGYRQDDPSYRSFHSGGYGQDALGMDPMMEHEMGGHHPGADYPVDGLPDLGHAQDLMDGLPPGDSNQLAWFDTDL

Effect of a mutation on the interaction, decreasing interaction:
R359A
L366A
H358A
I369A
